Laboratory results from patent US20210054097A1 (Novo Nordisk, published 2021).
One block for each binder: values may come before it. Ends that are not written are not given here.

Key:
[1] = target: T1, FX activation peptide 12-mer SVAQATSSSGEA (human); test: peptide ELISA
T1 peptide: SVAQATSSSGEA-biotin
Description: (§1) The peptides were C-terminally conjugated to biotin and 50 μL of 1 μg/mL peptide solution was used for immobilization in discrete wells of the microtiter plate which was pre-coated with 1 μg/mL streptavidin. Each well was washed with washing buffer (10 mM Tris, 150 mM NaCl, 2.5 mM CaCl₂, 0.05% Tween 20, pH 8.60) followed by addition of 50 μL of 2 μg/mL FLAG-tagged anti-FX Nanobody® or IgG antibody to be tested. After 1 hour non-bound Nanobody®/antibody was washed off using washing buffer.
(§2) Bound anti-FX activation peptide ligand was detected by first binding a HRP-labelled secondary antibody (for FLAG-tagged Nanobodies: Anti-FLAG mAb M2-Peroxidase (HRP) (Sigma Aldrich, US), for antibody: Fcγ Fragment Specific Peroxidase AffiniPure F(ab′)₂ Fragment Goat Anti-Human IgG (Jackson ImmunoResearch Laboratories, Inc., US), or Peroxidase AffiniPure Goat Anti-Mouse IgG (Jackson ImmunoResearch Laboratories, Inc., US)) for 1 hour, and then adding 100 μL TMB-1 ELISA substrate (Kem-En-Tec Diagnostics, Denmark).

[2] = target: T2, FX activation peptide 12-mer VAQATSSSGEAP (human); test: peptide ELISA
T2 peptide: VAQATSSSGEAP-biotin
Description: as §1, §2

[3] = target: T3, FX activation peptide 12-mer AQATSSSGEAPD (human); test: peptide ELISA
T3 peptide: AQATSSSGEAPD-biotin
Description: as §1, §2

[4] = target: T4, FX activation peptide 12-mer ATSSSGEAPDSI (human); test: peptide ELISA
T4 peptide: ATSSSGEAPDSI-biotin
Description: as §1, §2

[5] = target: T5, FX activation peptide 12-mer TSSSGEAPDSIT (human); test: peptide ELISA
T5 peptide: TSSSGEAPDSIT-biotin
Description: as §1, §2

[6] = target: T6, FX activation peptide 12-mer SSSGEAPDSITW (human); test: peptide ELISA
T6 peptide: SSSGEAPDSITW-biotin
Description: as §1, §2

[7] = target: T7, FX activation peptide 12-mer SSGEAPDSITWK (human); test: peptide ELISA
T7 peptide: SSGEAPDSITWK-biotin
Description: as §1, §2

[8] = target: T8, FX activation peptide 12-mer SGEAPDSITWKP (human); test: peptide ELISA
T8 peptide: SGEAPDSITWKP-biotin
Description: as §1, §2

[9] = target: T9, FX activation peptide 12-mer EAPDSITWKPYD (human); test: peptide ELISA
T9 peptide: EAPDSITWKPYD-biotin
Description: as §1, §2

[10] = target: T10, FX activation peptide 12-mer APDSITWKPYDA (human); test: peptide ELISA
T10 peptide: APDSITWKPYDA-biotin
Description: as §1, §2

[11] = target: T11, FX activation peptide 12-mer PDSITWKPYDAA (human); test: peptide ELISA
T11 peptide: PDSITWKPYDAA-biotin
Description: as §1, §2

[12] = target: T12, FX activation peptide 12-mer DSITWKPYDAAD (human); test: peptide ELISA
T12 peptide: DSITWKPYDAAD-biotin
Description: as §1, §2

[13] = target: T13, FX activation peptide 12-mer SITWKPYDAADL (human); test: peptide ELISA
T13 peptide: SITWKPYDAADL-biotin
Description: as §1, §2

[14] = target: T14, FX activation peptide 12-mer ITWKPYDAADLD (human); test: peptide ELISA
T14 peptide: ITWKPYDAADLD-biotin
Description: as §1, §2

[15] = target: T15, FX activation peptide 12-mer TWKPYDAADLDP (human); test: peptide ELISA
T15 peptide: TWKPYDAADLDP-biotin
Description: as §1, §2

[16] = target: T16, FX activation peptide 12-mer WKPYDAADLDPT (human); test: peptide ELISA
T16 peptide: WKPYDAADLDPT-biotin
Description: as §1, §2

[17] = target: T17, FX activation peptide 12-mer KPYDAADLDPTE (human); test: peptide ELISA
T17 peptide: KPYDAADLDPTE-biotin
Description: as §1, §2

[18] = target: T18, FX activation peptide 12-mer PYDAADLDPTEN (human); test: peptide ELISA
T18 peptide: PYDAADLDPTEN-biotin
Description: as §1, §2

[19] = target: T19, FX activation peptide 12-mer YDAADLDPTENP (human); test: peptide ELISA
T19 peptide: YDAADLDPTENP-biotin
Description: as §1, §2

[20] = target: T20, FX activation peptide 12-mer AADLDPTENPFD (human); test: peptide ELISA
T20 peptide: AADLDPTENPFD-biotin
Description: as §1, §2

[21] = target: T21, FX activation peptide 12-mer ADLDPTENPFDL (human); test: peptide ELISA
T21 peptide: ADLDPTENPFDL-biotin
Description: as §1, §2

[22] = target: T22, FX activation peptide 12-mer DLDPTENPFDLL (human); test: peptide ELISA
T22 peptide: DLDPTENPFDLL-biotin
Description: as §1, §2

[23] = target: T23, FX activation peptide 12-mer TENPFDLLDFNQ (human); test: peptide ELISA
T23 peptide: TENPFDLLDFNQ-biotin
Description: as §1, §2

[24] = target: T24, FX activation peptide 12-mer ENPFDLLDFNQT (human); test: peptide ELISA
T24 peptide: ENPFDLLDFNQT-biotin
Description: as §1, §2

[25] = target: T25, FX activation peptide 12-mer NPFDLLDFNQTQ (human); test: peptide ELISA
T25 peptide: NPFDLLDFNQTQ-biotin
Description: as §1, §2

[26] = target: T26, FX activation peptide 12-mer FDLLDFNQTQPE (human); test: peptide ELISA
T26 peptide: FDLLDFNQTQPE-biotin
Description: as §1, §2

[27] = target: T27, FX activation peptide 12-mer DLLDFNQTQPER (human); test: peptide ELISA
T27 peptide: DLLDFNQTQPER-biotin
Description: as §1, §2

[28] = target: T28, FX activation peptide 12-mer LLDFNQTQPERG (human); test: peptide ELISA
T28 peptide: LLDFNQTQPERG-biotin
Description: as §1, §2

[29] = target: T29, FX activation peptide 12-mer LDFNQTQPERGD (human); test: peptide ELISA
T29 peptide: LDFNQTQPERGD-biotin
Description: as §1, §2

[30] = target: T30, FX activation peptide 12-mer DFNQTQPERGDN (human); test: peptide ELISA
T30 peptide: DFNQTQPERGDN-biotin
Description: as §1, §2

[31] = target: T31, FX activation peptide 12-mer NQTQPERGDNNL (human); test: peptide ELISA
T31 peptide: NQTQPERGDNNL-biotin
Description: as §1, §2

[32] = target: T32, FX activation peptide 12-mer QTQPERGDNNLT (human); test: peptide ELISA
T32 peptide: QTQPERGDNNLT-biotin
Description: as §1, §2

human activated Factor X = human activated Factor X (human, UniProt P00742 41-179; P00742 235-488); test: cell-based or functional assay
Chain of human activated Factor X (P00742 41-179, chain 1 of 2): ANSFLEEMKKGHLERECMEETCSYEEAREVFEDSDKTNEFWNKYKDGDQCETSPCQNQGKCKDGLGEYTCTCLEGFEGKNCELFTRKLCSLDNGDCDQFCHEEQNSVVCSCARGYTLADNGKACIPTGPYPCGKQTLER
Chain of human activated Factor X (P00742 235-488, chain 2 of 2): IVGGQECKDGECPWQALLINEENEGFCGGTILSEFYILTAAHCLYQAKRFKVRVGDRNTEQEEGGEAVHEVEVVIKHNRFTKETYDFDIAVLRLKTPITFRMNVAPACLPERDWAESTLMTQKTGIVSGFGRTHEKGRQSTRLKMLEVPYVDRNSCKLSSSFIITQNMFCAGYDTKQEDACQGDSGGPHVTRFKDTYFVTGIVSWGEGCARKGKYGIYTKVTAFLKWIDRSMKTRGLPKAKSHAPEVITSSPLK

- ELISA signal relative to background [1]: 1.21
- ELISA signal relative to background [2]: 1.24
- ELISA signal relative to background [3]: 1.19
- ELISA signal relative to background [4]: 1.19
- ELISA signal relative to background [5]: 1.2
- ELISA signal relative to background [6]: 1.21
- ELISA signal relative to background [7]: 1.22
- ELISA signal relative to background [8]: 1.18
- ELISA signal relative to background [9]: 1.24
- ELISA signal relative to background [10]: 1.16
- ELISA signal relative to background [11]: 1.24
- ELISA signal relative to background [12]: 1.22
- ELISA signal relative to background [13]: 1.18
- ELISA signal relative to background [14]: 1.2
- ELISA signal relative to background [15]: 1.26
- ELISA signal relative to background [16]: 1.14
- ELISA signal relative to background [17]: 1.17
- ELISA signal relative to background [18]: 1.2
- ELISA signal relative to background [19]: 1.28
- ELISA signal relative to background [20]: 1.21
- ELISA signal relative to background [21]: 1.25
- ELISA signal relative to background [22]: 1.26
- ELISA signal relative to background [23]: 2.1
- ELISA signal relative to background [24]: 6.57
- ELISA signal relative to background [25]: 2.82
- ELISA signal relative to background [26]: 1.28
- ELISA signal relative to background [27]: 1.18
- ELISA signal relative to background [28]: 1.1
- ELISA signal relative to background [29]: 1.14
- ELISA signal relative to background [30]: 1.16
- ELISA signal relative to background [31]: 1.22
- FXa amidolytic activity (relative to free FXa, fold) (human activated Factor X): 1.01 fold
B1: Nb 730C03 (VHH)
VHH: EVQLVESGGGVVQPGGSLRLSCVASGFTFSDYAMSWVRQAPGKGLEWVSGITSGSGRTYYADSVKGRFTISRDNSKNTVYLQMNSLRPEDTALYYCAAAILRGYRKTYDYWGQGTLVTVSS
notes: monovalent Nanobody; also called Nb 730003; not shown: C-terminal FLAG3 and HIS6 tag
- ELISA signal relative to background [32]: 1.1

- ELISA signal relative to background [1]: 0.74
- binding result [1]: no binding (tested: 2 µg/mL)
- ELISA signal relative to background [2]: 0.88
- binding result [2]: no binding (tested: 2 µg/mL)
- ELISA signal relative to background [3]: 0.79
- binding result [3]: no binding (tested: 2 µg/mL)
- ELISA signal relative to background [4]: 0.82
- binding result [4]: no binding (tested: 2 µg/mL)
- ELISA signal relative to background [5]: 0.76
- binding result [5]: no binding (tested: 2 µg/mL)
- ELISA signal relative to background [6]: 0.82
- binding result [6]: no binding (tested: 2 µg/mL)
- ELISA signal relative to background [7]: 0.71
- binding result [7]: no binding (tested: 2 µg/mL)
- ELISA signal relative to background [8]: 0.76
- binding result [8]: no binding (tested: 2 µg/mL)
- ELISA signal relative to background [9]: 0.76
- binding result [9]: no binding (tested: 2 µg/mL)
- ELISA signal relative to background [10]: 0.74
- binding result [10]: no binding (tested: 2 µg/mL)
- ELISA signal relative to background [11]: 0.79
- binding result [11]: no binding (tested: 2 µg/mL)
- ELISA signal relative to background [12]: 0.79
- binding result [12]: no binding (tested: 2 µg/mL)
- ELISA signal relative to background [13]: 0.71
- binding result [13]: no binding (tested: 2 µg/mL)
- ELISA signal relative to background [14]: 0.74
- binding result [14]: no binding (tested: 2 µg/mL)
- ELISA signal relative to background [15]: 0.74
- binding result [15]: no binding (tested: 2 µg/mL)
- ELISA signal relative to background [16]: 0.74
- binding result [16]: no binding (tested: 2 µg/mL)
- ELISA signal relative to background [17]: 0.82
- binding result [17]: no binding (tested: 2 µg/mL)
- ELISA signal relative to background [18]: 0.79
- binding result [18]: no binding (tested: 2 µg/mL)
- ELISA signal relative to background [19]: 0.71
- binding result [19]: no binding (tested: 2 µg/mL)
- ELISA signal relative to background [20]: 0.79
- binding result [20]: no binding (tested: 2 µg/mL)
- ELISA signal relative to background [21]: 0.71
- binding result [21]: no binding (tested: 2 µg/mL)
- ELISA signal relative to background [22]: 0.79
- binding result [22]: no binding (tested: 2 µg/mL)
- ELISA signal relative to background [23]: 1.09
- binding result [23]: no binding (tested: 2 µg/mL)
- ELISA signal relative to background [24]: 0.82
- binding result [24]: no binding (tested: 2 µg/mL)
- ELISA signal relative to background [25]: 0.94
- binding result [25]: no binding (tested: 2 µg/mL)
- ELISA signal relative to background [26]: 0.85
- binding result [26]: no binding (tested: 2 µg/mL)
- ELISA signal relative to background [27]: 0.76
- binding result [27]: no binding (tested: 2 µg/mL)
- ELISA signal relative to background [28]: 0.79
- binding result [28]: no binding (tested: 2 µg/mL)
- ELISA signal relative to background [29]: 0.74
- binding result [29]: no binding (tested: 2 µg/mL)
- ELISA signal relative to background [30]: 0.71
- binding result [30]: no binding (tested: 2 µg/mL)
- ELISA signal relative to background [31]: 0.71
- binding result [31]: no binding (tested: 2 µg/mL)
B2: Nb 501A02 (VHH)
VHH: EVQLVESGGGLVQPGGSLRLSCAASGFTFSNYEMSWVRQAPGKGLEWVSDIGSGGGVSTYYADSVKGRFTISRDNAKNTLYLQMNSLKPEDTAMYYCARGWTYGSDGMDYWGKGTLVTVSS
notes: monovalent control Nanobody; also called control Nanobody; not shown: C-terminal FLAG3 and HIS6 tag
- ELISA signal relative to background [32]: 0.76
- binding result [32]: no binding (tested: 2 µg/mL)
